Laboratory results as given in the supplement of paper PMC10567573.

B1: RTN2 (parent)
chain: SERPLEDLRLRLDHLGWVARGTGS
B2: FAM50A (parent)
chain: KKREKQREQMEQMKQRIAEENIMK

Variants of: B1
Assay: protein stability index of a GFP-peptide fusion (GPS, HEK-293T) (PSI 1-6); higher = more stable
Conditions: c terminus: a fixed tail appended
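Note: lentivirally expressed fusions sorted by FACS into six bins by GFP to DsRed ratio, PSI derived from sequencing read proportions per bin multiplied by bin number.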

Protein stability index, by site and new letter:
S24: H 2.03 | E 4.04 | T 2.71 | V 3.15 | W 2.11 | N 3.26 | Y 2.12 | M 1.76 | Q 2.61 | R 2.36 | D 2.59
G23: L 2.44 | P 3.34 | F 2.52 | C 2.4 | T 3.04 | I 3.35 | S 2.61 | E 3.99 | N 2.98 | M 1.87 | A 3.6 | H 2.6 | K 3.55
G21: S 2.68 | V 2.09 | T 2.08 | Y 2.42 | W 1.68 | P 2.33 | Q 2.78
T22: C 2.75 | I 2.48 | N 3.95 | W 3.11 | H 2.49 | Y 2.79 | M 2 | L 2.11 | F 1.3 | R 3.6 | G 2.23

Variants of: B2
Assay: as above
Conditions: c terminus: a fixed tail appended

Protein stability index of substitutions, site by site:
E8: C 4.15 | L 4.57 | R 4.71 | I 4.51 | K 4.48 | D 4.63 | S 4.41 | G 4.85 | A 4.96 | Y 4.23 | V 4.37 | H 3.74 | N 4.44 | T 4.31 | M 4.58 | Q 4.82 | F 4.29 | W 3.68 | P 4.89
Q9: R 4.56 | A 4.86 | K 4.93 | Y 4.51 | I 4.01 | F 4.16 | D 4.96 | V 4.67 | P 4.89 | N 4.8 | C 4.73 | G 4.75 | E 5.18 | T 4.72 | H 4.68 | L 4.92 | M 4.4 | W 4.13 | S 4.74
K5: F 4.8 | Y 4.11 | V 4.96 | Q 4.39 | R 4.62 | H 5.12 | S 4.92 | E 5.26 | W 4.46 | I 4.76 | M 4.95 | C 5.05 | T 5.16 | G 4.55 | D 4.75 | A 4.38 | P 5.34 | L 4.68 | N 5.25
E4: G 4.71 | T 4.09 | C 4.42 | D 5.21 | K 4.28 | V 4.49 | F 4.39 | L 4.21 | Y 4.27 | N 4.37 | P 4.42 | S 4.47 | M 4.5 | R 4.32 | W 3.96 | H 4.38 | A 5.04 | I 4.53 | Q 4.79
R16: F 4.52 | E 5.53 | G 5.32 | H 5.09 | I 4.71 | C 4.81 | A 5.42 | K 4.83 | D 5.56
Q6: M 4.62 | E 4.81 | S 4.96 | L 4.13 | P 4.57 | C 4.17 | T 4.9 | A 4.48 | F 4.13 | G 4.62 | K 4.67 | H 4.7 | W 3.96 | I 4.67 | V 4.49 | Y 4.14 | N 5.3 | D 5.06
Q12: E 5.28 | G 4.66 | L 4.55 | H 4.58 | I 4.63 | V 5.07 | F 3.71 | D 5.02 | C 5.05 | N 5.04 | Y 4.55 | K 4.57 | P 4.9 | T 4.7 | R 4.39 | A 4.44 | S 4.84 | M 4.27 | W 4.45
M13: F 4.67 | Q 5.26 | S 5.31 | W 2.63 | E 5.5 | R 5.08 | I 4.29 | T 5.31 | A 4.95 | P 4.99 | L 5.37 | Y 3.98 | G 5.27 | D 5.13 | V 4.82 | K 4.77 | H 4.65 | N 5.21 | C 5.03
R7: F 4.52 | D 5.39 | P 4.7 | Q 5.25 | M 4.52 | H 5.08 | W 4.13 | I 4.96 | V 4.98 | L 4.95 | G 5.21 | A 4.91 | S 5.51 | K 4.81 | N 4.93 | C 4.71 | T 4.84 | E 5.81 | Y 4.76
R3: V 5.21 | N 5.08 | W 4.25 | S 4.78 | P 5.26 | T 5.2 | A 5.17 | F 4.61 | G 5.18 | M 5.04 | Q 5.48 | Y 4.04 | K 5.06 | D 5.11 | I 5.16 | C 4.91 | H 4.65 | L 4.93 | E 5.29
Q15: M 4.5 | A 4.67 | P 4.9 | S 4.9 | N 4.8 | K 4.4 | E 5.51 | I 4.51 | W 4.29 | F 4.44 | Y 4.14 | R 4.73 | L 4.7 | T 4.85 | C 4.19 | V 4.36 | G 4.68 | H 4.84 | D 5.02
K2: F 4.45 | R 5.03 | T 5.07 | C 4.76 | Y 4.22 | L 3.67 | E 5.04 | V 4.52 | A 4.57 | S 5.01 | M 4.64 | N 4.94 | P 5.22 | I 4.63 | D 4.34 | H 4.98 | G 4.55 | Q 4.75 | W 4.58
E11: V 4.66 | C 4.13 | P 4.74 | L 3.96 | S 4.41 | Q 4.68 | M 4.17 | R 4.49 | D 5.03 | T 4.57 | H 4.62 | W 3.9 | Y 4.25 | I 4.4 | G 4.48 | K 4.5 | F 4.15 | N 4.86
K1: P 5.52 | T 5.07 | V 4.71 | F 4.22 | I 4.98 | H 4.95 | E 5.1 | L 4.62 | Q 5.15 | M 4.67 | Y 4.95 | G 4.9 | A 4.71 | N 5.42 | C 4.67 | D 4.87 | S 5.14 | R 4.48 | W 4.46
K14: F 4.32 | T 4.3 | R 4.59 | W 3.9 | A 5.21 | L 4.11 | Q 5.15 | H 5.01 | S 5.06 | M 4.53 | V 4.63 | Y 4.39 | G 5.02 | E 5.01 | N 4.86 | C 4.57 | P 5.67 | I 4.05 | D 5.02
M10: Q 4.86 | S 4.89 | N 4.9 | G 5.19 | L 4.07 | A 4.92 | I 4.7 | E 5.14 | F 4.15 | K 4.71 | T 4.69 | C 4.86 | P 5.15 | R 5.14 | W 4.7 | V 4.37 | H 5.16 | D 4.81 | Y 4.61
